For experiment [1], the target named is T1, α4β1 (UniProt P13612 34-970; P05556 21-728).
T1 construct: The preparation is not described; also called VLA-4; alpha4beta1 integrin
The experiment can be described thus: competition ELISA; α4β1 preincubated with test mAb, competitor murine HP1/2. In general terms: In an ELISA, binding on a coated surface is turned into a signal by an enzyme label.

In experiment [2] the target is VLA-4 on tumor cell lines (Mec1, JM1, U266, H929, HL60, KG1) (UniProt P13612). As to the kind of experiment: flow cytometry on Mec1 (CLL) cells.
The target is the same in experiment [3]. As to the kind of experiment: flow cytometry on H929 (MM) cells. Background: In flow cytometry, cells or beads pass a laser one at a time.
Experiment [4] has the same target. As to the kind of experiment: cell-based or functional assay.
The target of experiment [5] is T1, α4β1. As to the kind of experiment: competition ELISA; mixture of test mAb and mouse HP1/2 (competitor) on α4β1.
Experiment [6] addresses VLA-4 on tumor cell lines (Mec1, JM1, U266, H929, HL60, KG1) (UniProt P13612). The experiment can be described thus: flow cytometry on KG1 (AML) cells.
Experiment [7] shares this target. As to the kind of experiment: flow cytometry on HL60 (AML) cells.
Experiment [8] has the same target. As to the kind of experiment: flow cytometry on JM1 (CLL) cells.
Experiment [9] shares this target. The experiment can be described thus: flow cytometry on U266 (MM) cells.

The record followed here is US20190365892A1 (Biogen, published 2019).

Numbering of substitutions follows the chain as printed.

Turning to Humanized HP1/2 (HuHP1/2) (antibody), in [1], the IC50 – broadly, the concentration needed to halve the response being measured – is 1.05 nM. Besides, the EC50 – broadly, the concentration giving half of the maximal effect – in experiment [2] was 0.11 nM. The molecule also registered an EC50 in experiment [3] of 0.91 nM. In experiment [4], this molecule had an IC50 (nM), inhibition of adhesion of H929 (MM) cells to Fibronectin-coated wells of 0.21 nM; an IC50 (nM), inhibition of adhesion of H929 (MM) cells to VCAM1-Ig-coated wells of 1.35 nM; an IC50 (nM), inhibition of adhesion of HL60 (AML) cells to Fibronectin-coated wells of 0.16 nM; an IC50 (nM), inhibition of adhesion of HL60 (AML) cells to VCAM1-Ig-coated wells of 0.91 nM. In [4], this molecule showed an IC50 (nM), inhibition of adhesion of JM1 (CLL) cells to VCAM1-Ig-coated wells of 0.12 nM; an IC50 (nM), inhibition of adhesion of KG1 (AML) cells to Fibronectin-coated wells of 0.05 nM; an IC50 (nM), inhibition of adhesion of KG1 (AML) cells to VCAM1-Ig-coated wells of 0.1 nM; an IC50 (nM), inhibition of adhesion of Mec1 (CLL) cells to Fibronectin-coated wells of 0.1 nM. In experiment [4], this molecule gave an IC50 (nM), inhibition of adhesion of Mec1 (CLL) cells to VCAM1-Ig-coated wells of 0.07 nM; an IC50 (nM), inhibition of adhesion of U266 (MM) cells to Fibronectin-coated wells of 0.14 nM; an IC50 (nM), inhibition of adhesion of U266 (MM) cells to VCAM1-Ig-coated wells of 0.13 nM; an antibody concentration giving maximal inhibition of HL60 cell binding to FN and VCAM1-Ig of 20 µg/mL. In experiment [4], this molecule returned an antibody concentration giving maximal inhibition of Mec1 cell binding to FN and VCAM1-Ig of 20 µg/mL; an antibody concentration giving maximal inhibition of U266 cell binding to FN and VCAM1-Ig of 20 µg/mL. In addition, the IC50 in experiment [5] is 1.41 nM. Besides, in experiment [6], the 50% effective concentration (EC50) came to 0.19 nM. The molecule also displayed a concentration for a half-maximal effect (EC50) in experiment [7] of 0.11 nM. Besides, the EC50 in experiment [8] was 0.21 nM. The EC50 in [9] came to 0.46 nM.

B1: Chimeric HP1/2 (antibody, V domains shown)
VH: EVQLQQSGAELVKPGASVKLSCTASGFNIKDTYMHWVKQRPEQGLEWIGRIDPASGDTKYDPKFQVKATITADTSSNTAWLQLSSLTSEDTAVYYCADGMWVSTGYALDFWGQGTTVTVSS
VL: SIVMTQTPKFLLVSAGDRVTITCKASQSVTNDVAWYQQKPGQSPKLLIYYASNRYTGVPDRFTGSGYGTDFTFTISTVQAEDLAVYFCQQDYSSPYTFGGGTKLEIK
notes: also called chimerized HP1/2 antibody; chimeric mAb
Consider B1, for which the IC50 in [1] was 1.06 nM; in [5], 1.64 nM.

B2: H1L0 (antibody, V domains shown)
VH: EVQLVQSGAEVKKPGATVKISCKASGFNIKDTYMHWVQQAPGKGLEWMGRIDPASGDTKYDPKFQVRVTITADTSTDTAYMELSSLRSEDTAVYYCADGMWVSTGYALDFWGQGTLVTVSS
VL: DIVMTQSPDSLAVSLGERATINCKASQSVTNDVAWYQQKPGQPPKLLIYYASNRYTGVPDRFSGSGSGTDFTLTISSLQAEDVAVYYCQQDYSSPYTFGQGTKVEIK
For B2, the half-inhibitory concentration (IC50) in experiment [1] came to 1.87 nM; in [5], 4.46 nM.

B3: H1L1 (antibody, V domains shown)
VH: B2 VH
VL: B2 VL with D1S, Y87F
On to B3, for which the IC50 in experiment [1] was 1.67 nM; in experiment [5] it was 4.55 nM.

B4: H1L2 (antibody, V domains shown)
VH: B2 VH
VL: B2 VL with D1S, S67Y, Y87F
For B4, the IC50 in experiment [1] worked out at 0.9 nM; in [5] it was 1.34 nM.

B5: H1L3 (antibody, V domains shown)
VH: B2 VH
VL: B2 VL with D1S, S67Y, L73F, V85T, Y87F
On to B5, for which the concentration for half-maximal inhibition (IC50) in [1] is 0.49 nM.
